Measured values as given in US20130053549A1 (UCB, published 2013).
Positions count from the first letter of the chain named. One block for each binder: values may come before it.

Legend:
IL13 = target: T1, IL13 (UniProt P35225 35-146, limits assumed); experiment: SPR, Biacore 3000; sample captured by anti-human CH1 antibody, IL13 as analyte
T1 construct: also called IL13 (R&D 213IL)
Procedure: (§1) Covalent immobilisation of the capture antibody was achieved by standard amine coupling chemistry.
(§2) After each cycle, the capture surface was regenerated with 2×1 min injections of 40 mM HCl followed by 30 s of 5 mM NaOH. The flow rates used were 10 μl/min for capture, 30 μl/min for association and dissociation phases, and 10 μl/min for regeneration.
(§3) Kinetic parameters were determined by simultaneous global-fitting of the resulting sensorgrams to a standard 1:1 binding model using Biacore 3000 Evaluation Software v3.2

human serum albumin [1] = target: T2, human serum albumin (human, UniProt P02768 25-609); experiment: SPR, Biacore 3000; construct captured by anti-human CH1 antibody, 50 nM HSA alone
T2 construct: Bought protein; also called HSA
Procedure: as §1, §2

Ox40/mFc = target: T3, Ox40/mFc (UniProt P43489 29-214); experiment: SPR, Biacore 3000; construct captured by anti-human CH1 antibody, 20 nM Ox40/mFc alone
T3 construct: Bought fusion protein; also called Ox40/mFc (AXXORA 1588)
T3 sequence (looked up): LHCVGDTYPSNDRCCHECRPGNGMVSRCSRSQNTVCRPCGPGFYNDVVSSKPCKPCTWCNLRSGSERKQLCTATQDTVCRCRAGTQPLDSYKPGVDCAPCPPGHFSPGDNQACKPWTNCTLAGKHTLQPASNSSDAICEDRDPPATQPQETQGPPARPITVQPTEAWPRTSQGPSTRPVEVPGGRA
Procedure: as §1, §2

human serum albumin [2] = target: T2, human serum albumin; experiment: SPR, Biacore T100; sample captured by anti-human CH1 antibody, HSA as analyte
Procedure: as §1, §2
(§4) A blank flow-cell was used for reference subtraction and buffer-blank injections were included to subtract instrument noise and drift.

IL-6 [3] = target: T4, IL-6 (UniProt P05231 30-212, limits assumed); experiment: SPR, Biacore T100; sample captured by anti-human CH1 antibody, IL-6 as analyte
Procedure: as §1, §2, §4

human serum albumin [4] = target: T2, human serum albumin; experiment: SPR, Biacore T100; sample captured by anti-human CH1 antibody, HSA as analyte, 1:1 fit
Procedure: as §1, §2
(§5) Kinetic parameters were determined by simultaneous global-fitting of the resulting sensorgrams to a standard 1:1 binding model using Biacore T100 Evaluation Software v2.0.1.

IL-6 [5] = target: T4, IL-6; experiment: SPR, Biacore T100; sample captured by anti-human CH1 antibody, IL-6 as analyte, 1:1 fit
Procedure: as §1, §4, §5

TNF = target: T5, TNF (human, UniProt P01375 77-233); experiment: SPR, Biacore 3000; sample captured by anti-human CH1 antibody, TNF as analyte
T5 construct: also called TNF (Strathmann hTNFa); hTNFa
Procedure: as §1, §2, §3

B2: A26Fab-(3xG4S)-645dsFv-(3xG4S)-652Fv (other)
heavy: EVQLVESGGGLVQPGGSLRLSCAASGFTFTNYGIHWIRQAPGKGLEWVASISPSGGLTYYRDSVKGRFTISRDDAKNSPYLQMNSLRAEDTAVYYCATGGEGIFDYWGQGTLVTVSSASTKGPSVFPLAPSSKSTSGGTAALGCLVKDYFPEPVTVSWNSGALTSGVHTFPAVLQSSGLYSLSSVVTVPSSSLGTQTYICNVNHKPSNTKVDKKVEPKSCSGGGGSGGGGSGGGGSEVQLLESGGGLVQPGGSLRLSCAVSGIDLSNYAINWVRQAPGKCLEWIGIIWASGTTFYATWAKGRFTISRDSTTVYLQMNSLRAEDTAVYYCARTVPGYSTAPYFDLWGQGTLVTVSSGGGGSGGGGSGGGGSQVTLKESGPVLVKPTETLTLTCTVSGFSLTNYHVQWIRQPPGKALEWLGVMWSDGDTSFNSVLKSRLTISRDTSKSQVVLTMTNMDPVDTATYYCARDGTIAAMDYFDYWGQGTLVTVSS
light: DIQMTQSPSSLSASVGDRVTITCRATQSIYNALAWYQQKPGKAPKLLIYNANTLHTGVPSRFSASGSGTDSTLTISSLQPEDFATYYCQQYYDYPLTFGGGTKVEIKRTVAAPSVFIFPPSDEQLKSGTASVVCLLNNFYPREAKVQWKVDNALQSGNSQESVTEQDSKDSTYSLSSTLTLSKADYEKHKVYACEVTHQGLSSPVTKSFNRGECSGGGGSGGGGSGGGGSDIVMTQSPSSVSASVGDRVTITCQSSPSVWSNFLSWYQQKPGKAPKLLIYEASKLTSGVPSRFKGSGSGTDFTLTISSLQPEDFATYYCGGGYSSISDTTFGCGTKVEIKGGGGSGGGGSGGGGSDIQMTQSPSSLSASVGDRVTITCLASEDISNYLAWYQQKPGKAPKLLIYHTSRLQDGVPSRFSGSGSGTDFTLTISSLQPEDFATYYCQQGYRFPLTFGGGTKVEIK
notes: Trispecific Fab-Fv-Fv (OX40, HSA, IL13); terminal 652 Fv without a disulfide (-DS read as Fv); HEK293 supernatant; also called A26-645-652-DS; A26Fab-645Fv-652/870Fv
Stoichiometry (IL13): 0.95
Response RU (human serum albumin [1]): 12 RU
Response RU (Ox40/mFc): 42 RU

B3: A26Fab 645Fv 4G4S 1189Fv (other)
heavy: EVQLVESGGGLVQPGGSLRLSCAASGFTFTNYGIHWIRQAPGKGLEWVASISPSGGLTYYRDSVKGRFTISRDDAKNSPYLQMNSLRAEDTAVYYCATGGEGIFDYWGQGTLVTVSSASTKGPSVFPLAPSSKSTSGGTAALGCLVKDYFPEPVTVSWNSGALTSGVHTFPAVLQSSGLYSLSSVVTVPSSSLGTQTYICNVNHKPSNTKVDKKVEPKSCSGGGGSGGGGSGGGGSEVQLLESGGGLVQPGGSLRLSCAVSGIDLSNYAINWVRQAPGKCLEWIGIIWASGTTFYATWAKGRFTISRDSTTVYLQMNSLRAEDTAVYYCARTVPGYSTAPYFDLWGQGTLVTVSSGGGGSGGGGSGGGGSGGGGSEVQLVESGGGLVQPGGSLRLSCAASGFTFNDYDMAWVRQAPGKCLEWVASITPSGGGTYYRDSVKGRFTISRDNAKNSLYLQMNSLRAEDTAVYYCARHGYTLDYFEYWGQGTMVTVSS
light: DIQMTQSPSSLSASVGDRVTITCRATQSIYNALAWYQQKPGKAPKLLIYNANTLHTGVPSRFSASGSGTDSTLTISSLQPEDFATYYCQQYYDYPLTFGGGTKVEIKRTVAAPSVFIFPPSDEQLKSGTASVVCLLNNFYPREAKVQWKVDNALQSGNSQESVTEQDSKDSTYSLSSTLTLSKADYEKHKVYACEVTHQGLSSPVTKSFNRGECSGGGGSGGGGSGGGGSDIVMTQSPSSVSASVGDRVTITCQSSPSVWSNFLSWYQQKPGKAPKLLIYEASKLTSGVPSRFKGSGSGTDFTLTISSLQPEDFATYYCGGGYSSISDTTFGCGTKVEIKGGGGSGGGGSGGGGSGGGGSDIQMTQSPSSLSASVGDRVTITCLASEGISNDLAWYQQKPGKAPKLLIYDATRLQDGVPSRFSGSGSGTDFTLTISSLQPEDFATYYCQQSYKYPWTFGCGTKLEIK
notes: Trispecific Fab-Fv-Fv (OX40, HSA, IL-6); second linker 4xG4S; HEK293 supernatant; also called A26Fab-645Fv-1189Fv; FabFvFv
Stoichiometry (human serum albumin [2]): 0.4
Stoichiometry (IL-6 [3]): 0.66
Kd (human serum albumin [4]): 11.7 nM
koff (human serum albumin [4]): 0.000396 s⁻¹
kon (human serum albumin [4]): 33900 M⁻¹ s⁻¹
Kd (IL-6 [5]): 0.52 nM
koff (IL-6 [5]): 0.000729 s⁻¹
kon (IL-6 [5]): 1.41e+06 M⁻¹ s⁻¹

B4: A26Fab 645Fv 5G4S 1189Fv (other)
heavy: EVQLVESGGGLVQPGGSLRLSCAASGFTFTNYGIHWIRQAPGKGLEWVASISPSGGLTYYRDSVKGRFTISRDDAKNSPYLQMNSLRAEDTAVYYCATGGEGIFDYWGQGTLVTVSSASTKGPSVFPLAPSSKSTSGGTAALGCLVKDYFPEPVTVSWNSGALTSGVHTFPAVLQSSGLYSLSSVVTVPSSSLGTQTYICNVNHKPSNTKVDKKVEPKSCSGGGGSGGGGSGGGGSEVQLLESGGGLVQPGGSLRLSCAVSGIDLSNYAINWVRQAPGKCLEWIGIIWASGTTFYATWAKGRFTISRDSTTVYLQMNSLRAEDTAVYYCARTVPGYSTAPYFDLWGQGTLVTVSSGGGGSGGGGSGGGGSGGGGSGGGGSEVQLVESGGGLVQPGGSLRLSCAASGFTFNDYDMAWVRQAPGKCLEWVASITPSGGGTYYRDSVKGRFTISRDNAKNSLYLQMNSLRAEDTAVYYCARHGYTLDYFEYWGQGTMVTVSS
light: DIQMTQSPSSLSASVGDRVTITCRATQSIYNALAWYQQKPGKAPKLLIYNANTLHTGVPSRFSASGSGTDSTLTISSLQPEDFATYYCQQYYDYPLTFGGGTKVEIKRTVAAPSVFIFPPSDEQLKSGTASVVCLLNNFYPREAKVQWKVDNALQSGNSQESVTEQDSKDSTYSLSSTLTLSKADYEKHKVYACEVTHQGLSSPVTKSFNRGECSGGGGSGGGGSGGGGSDIVMTQSPSSVSASVGDRVTITCQSSPSVWSNFLSWYQQKPGKAPKLLIYEASKLTSGVPSRFKGSGSGTDFTLTISSLQPEDFATYYCGGGYSSISDTTFGCGTKVEIKGGGGSGGGGSGGGGSGGGGSGGGGSDIQMTQSPSSLSASVGDRVTITCLASEGISNDLAWYQQKPGKAPKLLIYDATRLQDGVPSRFSGSGSGTDFTLTISSLQPEDFATYYCQQSYKYPWTFGCGTKLEIK
notes: Trispecific Fab-Fv-Fv (OX40, HSA, IL-6); second linker 5xG4S; HEK293 supernatant; also called A26Fab-645Fv-1189Fv; FabFvFv
Stoichiometry (human serum albumin [2]): 0.39
Stoichiometry (IL-6 [3]): 0.69
Kd (human serum albumin [4]): 12.2 nM
koff (human serum albumin [4]): 0.000393 s⁻¹
kon (human serum albumin [4]): 32400 M⁻¹ s⁻¹
Kd (IL-6 [5]): 0.48 nM
koff (IL-6 [5]): 0.000768 s⁻¹
kon (IL-6 [5]): 1.61e+06 M⁻¹ s⁻¹

Second part, the binder after the results:

Affinity (fold loss against the parent) (IL13): 2 fold
Stoichiometry (IL13): 0.88
Response RU (human serum albumin [1]): 11 RU
Response RU (Ox40/mFc): 39 RU
B1: A26Fab-(3xG4S)-645dsFv-(3xG4S)-652dsFv (other)
heavy: B2 heavy with A414C
light: DIQMTQSPSSLSASVGDRVTITCRATQSIYNALAWYQQKPGKAPKLLIYNANTLHTGVPSRFSASGSGTDSTLTISSLQPEDFATYYCQQYYDYPLTFGGGTKVEIKRTVAAPSVFIFPPSDEQLKSGTASVVCLLNNFYPREAKVQWKVDNALQSGNSQESVTEQDSKDSTYSLSSTLTLSKADYEKHKVYACEVTHQGLSSPVTKSFNRGECSGGGGSGGGGSGGGGSDIVMTQSPSSVSASVGDRVTITCQSSPSVWSNFLSWYQQKPGKAPKLLIYEASKLTSGVPSRFKGSGSGTDFTLTISSLQPEDFATYYCGGGYSSISDTTFGCGTKVEIKGGGGSGGGGSGGGGSDIQMTQSPSSLSASVGDRVTITCLASEDISNYLAWYQQKPGKAPKLLIYHTSRLQDGVPSRFSGSGSGTDFTLTISSLQPEDFATYYCQQGYRFPLTFGCGTKVEIKR
notes: Trispecific Fab-Fv-Fv (OX40, HSA, IL13); terminal 652 Fv with a disulfide (+DS read as dsFv); HEK293 supernatant; also called A26-645-652+DS; A26Fab-645Fv-652/870Fv

Affinity (fold loss against the parent) (TNF): 2 fold
Stoichiometry (TNF): 0.42
Response RU (human serum albumin [1]): 10 RU
Response RU (Ox40/mFc): 32 RU
B5: A26Fab-(3xG4S)-645dsFv-(3xG4S)-870dsFv (other)
heavy: EVQLVESGGGLVQPGGSLRLSCAASGFTFTNYGIHWIRQAPGKGLEWVASISPSGGLTYYRDSVKGRFTISRDDAKNSPYLQMNSLRAEDTAVYYCATGGEGIFDYWGQGTLVTVSSASTKGPSVFPLAPSSKSTSGGTAALGCLVKDYFPEPVTVSWNSGALTSGVHTFPAVLQSSGLYSLSSVVTVPSSSLGTQTYICNVNHKPSNTKVDKKVEPKSCSGGGGSGGGGSGGGGSEVQLLESGGGLVQPGGSLRLSCAVSGIDLSNYAINWVRQAPGKCLEWIGIIWASGTTFYATWAKGRFTISRDSTTVYLQMNSLRAEDTAVYYCARTVPGYSTAPYFDLWGQGTLVTVSSGGGGSGGGGSGGGGSEVQLVESGGGLVQPGGSLRLSCAASGYVFTDYGMNWVRQAPGKCLEWMGWINTYIGEPIYADSVKGRFTFSLDTSKSTAYLQMNSLRAEDTAVYYCARGYRSYAMDYWGQGTLVTVSS
light: DIQMTQSPSSLSASVGDRVTITCRATQSIYNALAWYQQKPGKAPKLLIYNANTLHTGVPSRFSASGSGTDSTLTISSLQPEDFATYYCQQYYDYPLTFGGGTKVEIKRTVAAPSVFIFPPSDEQLKSGTASVVCLLNNFYPREAKVQWKVDNALQSGNSQESVTEQDSKDSTYSLSSTLTLSKADYEKHKVYACEVTHQGLSSPVTKSFNRGECSGGGGSGGGGSGGGGSDIVMTQSPSSVSASVGDRVTITCQSSPSVWSNFLSWYQQKPGKAPKLLIYEASKLTSGVPSRFKGSGSGTDFTLTISSLQPEDFATYYCGGGYSSISDTTFGCGTKVEIKGGGGSGGGGSGGGGSDIQMTQSPSSLSASVGDRVTITCKASQNVGTNVAWYQQKPGKAPKALIYSASFLYSGVPYRFSGSGSGTDFTLTISSLQPEDFATYYCQQYNIYPLTFGCGTKVEIKR
notes: Trispecific Fab-Fv-Fv (OX40, HSA, TNF); terminal 870 Fv with a disulfide (+DS read as dsFv); HEK293 supernatant; also called A26-645-870+DS; A26Fab-645Fv-652/870Fv

Affinity (fold loss against the parent) (TNF): 2 fold
Stoichiometry (TNF): 0.39
Response RU (human serum albumin [1]): 11 RU
Response RU (Ox40/mFc): 31 RU
B6: A26Fab-(3xG4S)-645dsFv-(3xG4S)-870Fv (other)
heavy: B5 heavy with C414G
light: DIQMTQSPSSLSASVGDRVTITCRATQSIYNALAWYQQKPGKAPKLLIYNANTLHTGVPSRFSASGSGTDSTLTISSLQPEDFATYYCQQYYDYPLTFGGGTKVEIKRTVAAPSVFIFPPSDEQLKSGTASVVCLLNNFYPREAKVQWKVDNALQSGNSQESVTEQDSKDSTYSLSSTLTLSKADYEKHKVYACEVTHQGLSSPVTKSFNRGECSGGGGSGGGGSGGGGSDIVMTQSPSSVSASVGDRVTITCQSSPSVWSNFLSWYQQKPGKAPKLLIYEASKLTSGVPSRFKGSGSGTDFTLTISSLQPEDFATYYCGGGYSSISDTTFGCGTKVEIKGGGGSGGGGSGGGGSDIQMTQSPSSLSASVGDRVTITCKASQNVGTNVAWYQQKPGKAPKALIYSASFLYSGVPYRFSGSGSGTDFTLTISSLQPEDFATYYCQQYNIYPLTFGQGTKVEIK
notes: Trispecific Fab-Fv-Fv (OX40, HSA, TNF); terminal 870 Fv without a disulfide (-DS read as Fv); HEK293 supernatant; also called A26-645-870-DS; A26Fab-645Fv-652/870Fv
